Publication PMC6078968, “Structural insights into the gating of DNA passage by the topoisomerase II DNA-gate” (Nature Communications, 2018)

What was measured:
[1] = biological target: T1, hTop2βcore (DNA-binding and cleavage core of human topoisomerase 2β) (human, UniProt Q02880-2 445-1201); test: X-ray crystallography (2.75 Å); open DNA-gate cleavage complex; Mn2+ (2 mM MnCl2), Mg acetate; etoposide or doxorubicin in crystallization mix, refined as binary complex; Crystallization: 5 mg/mL (~28 uM) protein, ~34 uM duplex, 2 mM etoposide or doxorubicin, 30 mM Tris-HCl pH 7.0, 70 mM NaCl, 2 mM MnCl2 (MgCl2 for P21), 1 mM EDTA, 2 mM β-mercaptoethanol; reservoir 100 mM Mg acetate, 50 mM MES pH 5.8 (5.6 for P21), …; details: protein: recombinant; chain copies: 2; blunt; self-complementary, 2 copies of S1; cleaved with 4-nt stagger in the complex
[2] = biological target: the molecule itself; test: crystal structure; open DNA-gate form of the hTop2β^core-DNA cleavage complex, space group P3_(2)21, one subunit in the asymmetric unit, homodimer built by the crystallographic twofold axis; 2.75 Å (5ZEN) and 3.87 Å with iodine-labelled DNA (5ZQF); MnCl2 in the sample buffer, reservoir pH 5.8, 4 °C
[3] = biological target: T1, hTop2βcore (DNA-binding and cleavage …); test: X-ray crystallography (3.87 Å); open DNA-gate cleavage complex; Mn2+ (2 mM MnCl2), Mg acetate; etoposide or doxorubicin in crystallization mix, refined as binary complex; Crystallization: 5 mg/mL (~28 uM) protein, ~34 uM duplex, 2 mM etoposide or doxorubicin, 30 mM Tris-HCl pH 7.0, 70 mM NaCl, 2 mM MnCl2 (MgCl2 for P21), 1 mM EDTA, 2 mM β-mercaptoethanol; reservoir 100 mM Mg acetate, 50 mM MES pH 5.8 (5.6 for P21), …; details: protein: recombinant; chain copies: 2; blunt; self-complementary, 2 copies; cleaved with 4-nt stagger in the complex

B1: 20-bp G-segment duplex (native) (dsDNA)
DNA 1: AGCCGAGCTGCAGCTCGGCT
DNA 2: AGCCGAGCTGCAGCTCGGCT
Q: Does B1 bind [1]?
A: binds

B2: DNA-binding and cleavage core of human topoisomerase 2β (hTop2β^core), in the covalent cleavage complex with a 20-bp duplex DNA (domain or fragment, UniProt Q02880-2 445-1201, looked up)
chain: SVKYSKIKGIPKLDDANDAGGKHSLECTLILTEGDSAKSLAVSGLGVIGRDRYGVFPLRGKILNVREASHKQIMENAEINNIIKIVGLQYKKSYDDAESLKTLRYGKIMIMTDQDQDGSHIKGLLINFIHHNWPSLLKHGFLEEFITPIVKASKNKQELSFYSIPEFDEWKKHIENQKAWKIKYYKGLGTSTAKEAKEYFADMERHRILFRYAGPEDDAAITLAFSKKKIDDRKEWLTNFMEDRRQRRLHGLPEQFLYGTATKHLTYNDFINKELILFSNSDNERSIPSLVDGFKPGQRKVLFTCFKRNDKREVKVAQLAGSVAEMSAYHHGEQALMMTIVNLAQNFVGSNNINLLQPIGQFGTRLHGGKDAASPRYIFTMLSTLARLLFPAVDDNLLKFLYDDNQRVEPEWYIPIIPMVLINGAEGIGTGWACKLPNYDAREIVNNVRRMLDGLDPHPMLPNYKNFKGTIQELGQNQYAVSGEIFVVDRNTVEITELPVRTWTQVYKEQVLEPMLNGTDKTPALISDYKEYHTDTTVKFVVKMTEEKLAQAEAAGLHKVFKLQTTLTCNSMVLFDHMGCLKKYETVQDILKEFFDLRLSYYGLRKEWLVGMLGAESTKLNNQARFILEKIQGKITIENRSKKDLIQMLVQRGYESDPVKAWKEAQEKAAEEDETQNQHDDSSSDSGTPSGPDFNYILNMSLWSLTKEKVEELIKQRDAKGREVNDLKRKSPSDLWKEDLAAFVEELDKVESQERED
modifications: catalytic tyrosine (Tyr821) joined to the 5′-phosphate of the cleaved G-segment DNA by a phosphotyrosyl linkage
notes: Not seen in 5ZEN chain A: 445-451, 597-602, 616-624, 703-706, 1112-1134; the His tag is surmised from the Ni-NTA step; also called hTop2^core; Top2 cleavage complex; source: E. coli BL21 (DE3) Star-pLysS, purified (Ni-NTA, heparin, Superdex 200)
Q: Does B2 bind [2]?
A: binds

B3: 20-bp G-segment duplex, 5-iododeoxyuridine labeled (DNAI) (dsDNA)
DNA 1: AGCCGAGCUGCAGCUCGGCU
DNA 2: AGCCGAGCUGCAGCUCGGCU
modifications: 5-iodo-2'-deoxyuridine replaces all thymidines (positions 9, 15, 20 of each strand); U denotes iododeoxyuridine, DNA backbone
Q: Does B3 bind [3]?
A: binds
